Data on three substances can be found in patent US20170119861.

Targets include synthetic Aβ42 peptide (UniProt P05067); Aβ42 oligomers (UniProt P05067); Aβ42 fibrils (UniProt P05067).
In data set [1] the target is protective protein/cathepsin A (PPCA) (UniProt P10619).
Sequence of protective protein/cathepsin A (PPCA) (P10619 29-480): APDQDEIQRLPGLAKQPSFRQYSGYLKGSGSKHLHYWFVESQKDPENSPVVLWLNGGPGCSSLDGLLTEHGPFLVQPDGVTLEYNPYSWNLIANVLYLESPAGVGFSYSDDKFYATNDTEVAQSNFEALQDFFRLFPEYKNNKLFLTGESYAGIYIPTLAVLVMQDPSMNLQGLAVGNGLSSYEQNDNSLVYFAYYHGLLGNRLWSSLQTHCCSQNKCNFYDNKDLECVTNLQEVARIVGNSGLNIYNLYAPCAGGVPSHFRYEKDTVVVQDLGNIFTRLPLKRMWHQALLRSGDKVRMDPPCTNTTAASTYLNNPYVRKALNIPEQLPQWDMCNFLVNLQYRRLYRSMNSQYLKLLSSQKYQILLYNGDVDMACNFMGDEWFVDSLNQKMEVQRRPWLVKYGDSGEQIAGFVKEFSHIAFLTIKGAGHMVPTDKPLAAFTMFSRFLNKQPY

Sequence of cathepsin D (chain, as listed by the source): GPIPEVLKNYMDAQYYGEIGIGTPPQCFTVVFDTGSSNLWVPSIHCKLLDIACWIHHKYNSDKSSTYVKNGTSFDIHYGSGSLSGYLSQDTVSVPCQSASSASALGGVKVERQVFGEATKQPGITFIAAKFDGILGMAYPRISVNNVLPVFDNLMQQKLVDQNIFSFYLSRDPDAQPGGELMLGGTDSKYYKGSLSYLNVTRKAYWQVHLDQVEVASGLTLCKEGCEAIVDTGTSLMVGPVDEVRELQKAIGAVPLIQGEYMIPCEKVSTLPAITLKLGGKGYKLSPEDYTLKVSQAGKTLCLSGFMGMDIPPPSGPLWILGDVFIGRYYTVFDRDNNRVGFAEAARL
Sequence of synthetic Aβ42 peptide (P05067 whole entry, looked up, tested part not stated): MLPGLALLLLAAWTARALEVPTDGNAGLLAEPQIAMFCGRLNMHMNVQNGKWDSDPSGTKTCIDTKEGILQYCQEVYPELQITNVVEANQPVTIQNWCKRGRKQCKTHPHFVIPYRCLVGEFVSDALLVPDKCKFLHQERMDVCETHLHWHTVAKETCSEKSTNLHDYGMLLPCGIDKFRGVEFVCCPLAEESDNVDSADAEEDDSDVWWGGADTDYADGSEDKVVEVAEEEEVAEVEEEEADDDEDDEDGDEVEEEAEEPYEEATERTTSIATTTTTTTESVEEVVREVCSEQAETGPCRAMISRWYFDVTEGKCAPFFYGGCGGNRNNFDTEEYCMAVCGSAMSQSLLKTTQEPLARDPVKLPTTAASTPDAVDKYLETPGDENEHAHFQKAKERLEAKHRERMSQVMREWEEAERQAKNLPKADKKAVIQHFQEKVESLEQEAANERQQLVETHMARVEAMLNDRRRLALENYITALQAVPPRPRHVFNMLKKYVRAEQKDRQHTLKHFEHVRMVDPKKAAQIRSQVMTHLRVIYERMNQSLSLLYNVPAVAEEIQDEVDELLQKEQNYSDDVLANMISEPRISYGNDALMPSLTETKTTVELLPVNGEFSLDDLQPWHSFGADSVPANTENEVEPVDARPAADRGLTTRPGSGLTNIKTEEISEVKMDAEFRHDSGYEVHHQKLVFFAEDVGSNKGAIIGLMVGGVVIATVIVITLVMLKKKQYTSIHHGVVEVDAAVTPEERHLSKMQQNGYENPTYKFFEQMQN
Sequence of Aβ42 fibrils (P05067 whole entry, looked up): as the sequence (P05067 whole entry, looked up, tested part not stated) above
Sequence of Aβ42 oligomers (P05067 whole entry, looked up): as the sequence (P05067 whole entry, looked up, tested part not stated) above
Sequence of cathepsin L (chain, as listed by the source): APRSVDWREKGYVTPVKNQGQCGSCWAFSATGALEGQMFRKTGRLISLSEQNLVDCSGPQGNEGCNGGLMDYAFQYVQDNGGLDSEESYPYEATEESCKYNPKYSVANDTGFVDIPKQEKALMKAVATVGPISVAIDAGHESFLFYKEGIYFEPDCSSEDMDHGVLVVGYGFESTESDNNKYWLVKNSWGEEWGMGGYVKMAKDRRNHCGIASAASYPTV

For the substance cathepsin B, in the data set with synthetic Aβ42 peptide, the “western blot of Aβ42 treated with cathepsin B” value was “cathepsin B prevents aggregation of low molecular weight Aβ42 species and degrades Aβ42 monomers in a time dependent manner”. In addition, the “western blot (A11) of day 9 Aβ42 oligomers after overnight treatment with 90 ng enzyme” value in the data set with Aβ42 oligomers was “did not reveal changes in intensity or size of oligomer band (lines 5, 6)”. Also, the “western blot (E610) of day 9 Aβ42 fibrils after overnight treatment with 90 ng enzyme” value in the data set with Aβ42 fibrils is listed as “resulted in weak reduction/degradation of the fibril smear (line 5 compared to line 2)”.
On to cathepsin D, for which, in the data set with synthetic Aβ42 peptide, the “THT assay and western blot of Aβ42 treated with cathepsin D” value is listed as “strong prevention of aggregation of Aβ42 species, measured by THT; complete elimination Aβ42 monomers”. The “western blot (A11) of day 9 Aβ42 oligomers after overnight treatment with 90 ng enzyme” value in the data set with Aβ42 oligomers is reported as “did not reveal changes in intensity or size of oligomer band (lines 5, 6)”. The “western blot (E610) of day 9 Aβ42 fibrils after overnight treatment with 90 ng enzyme” value in the data set with Aβ42 fibrils is given as “did not result in visible reduction/degradation of fibril smear or oligomer bands”.
For cathepsin L, the “activation of cathepsin A (enzyme activity)” value in data set [1] was “Activation of 90 ng cathepsin A by cathepsin L”.
